Experimental data reported in IntAct's records for PubMed 23572552.

B1: Golgi resident protein GCP60 (Homo sapiens), Q9H3P7 (parent)
chain: MAAVLNAERLEVSVDGLTLSPDPEERPGAEGAPLLPPPLPPPSPPGSGRGPGASGEQPEPGEAAAGGAAEEARRLEQRWGFGLEELYGLALRFFKEKDGKAFHPTYEEKLKLVALHKQVLMGPYNPDTCPEVGFFDVLGNDRRREWAALGNMSKEDAMVEFVKLLNRCCHLFSTYVASHKIEKEEQEKKRKEEEERRRREEEERERLQKEEEKRRREEEERLRREEEERRRIEEERLRLEQQKQQIMAALNSQTAVQFQQYAAQQYPGNYEQQQILIRQLQEQHYQQYMQQLYQVQLAQQQAALQKQQEVVVAGSSLPTSSKVNATVPSNMMSVNGQAKTHTDSSEKELEPEAAEEALENGPKESLPVIAAPSMWTRPQIKDFKEKIQQDADSVITVGRGEVVTVRVPTHEEGSYLFWEFATDNYDIGFGVYFEWTDSPNTAVSVHVSESSDDDEEEEENIGCEEKAKKNANKPLLDEIVPVYRRDCHEEVYAGSHQYPGRGVYLLKFDNSYSLWRSKSVYYRVYYTR
B2: TBC1 domain family member 22A (Homo sapiens), Q8WUA7 (parent)
chain: MASDGARKQFWKRSNSKLPGSIQHVYGAQHPPFDPLLHGTLLRSTAKMPTTPVKAKRVSTFQEFESNTSDAWDAGEDDDELLAMAAESLNSEVVMETANRVLRNHSQRQGRPTLQEGPGLQQKPRPEAEPPSPPSGDLRLVKSVSESHTSCPAESASDAAPLQRSQSLPHSATVTLGGTSDPSTLSSSALSEREASRLDKFKQLLAGPNTDLEELRRLSWSGIPKPVRPMTWKLLSGYLPANVDRRPATLQRKQKEYFAFIEHYYDSRNDEVHQDTYRQIHIDIPRMSPEALILQPKVTEIFERILFIWAIRHPASGYVQGINDLVTPFFVVFICEYIEAEEVDTVDVSGVPAEVLCNIEADTYWCMSKLLDGIQDNYTFAQPGIQMKVKMLEELVSRIDEQVHRHLDQHEVRYLQFAFRWMNNLLMREVPLRCTIRLWDTYQSEPDGFSHFHLYVCAAFLVRWRKEILEEKDFQELLLFLQNLPTAHWDDEDISLLLAEAYRLKFAFADAPNHYKK
B3: TBC1 domain family member 22B (Homo sapiens), Q9NU19 (parent)
chain: MAAENSKQFWKRSAKLPGSIQPVYGAQHPPLDPRLTKNFIKERSKVNTVPLKNKKASSFHEFARNTSDAWDIGDDEEEDFSSPSFQTLNSKVALATAAQVLENHSKLRVKPERSQSTTSDVPANYKVIKSSSDAQLSRNSSDTCLRNPLHKQQSLPLRPIIPLVARISDQNASGAPPMTVREKTRLEKFRQLLSSQNTDLDELRKCSWPGVPREVRPITWRLLSGYLPANTERRKLTLQRKREEYFGFIEQYYDSRNEEHHQDTYRQIHIDIPRTNPLIPLFQQPLVQEIFERILFIWAIRHPASGYVQGINDLVTPFFVVFLSEYVEEDVENFDVTNLSQDMLRSIEADSFWCMSKLLDGIQDNYTFAQPGIQKKVKALEELVSRIDEQVHNHFRRYEVEYLQFAFRWMNNLLMRELPLRCTIRLWDTYQSEPEGFSHFHLYVCAAFLIKWRKEILDEEDFQGLLMLLQNLPTIHWGNEEIGLLLAEAYRLKYMFADAPNHYRR

Variants of: B1
Conditions: with polg_hkv1 polg

| Variant | effect of a mutation on the interaction |
| --- | --- |
| K507A;F508A;D509A;N510A | disrupting interaction strength |

Variants of: B1
Conditions: with polg_aiva8 polg

| Variant | effect of a mutation on the interaction |
| --- | --- |
| S513A | with no effect |
| Y512A | decreasing interaction strength |

Variants of: B2
Conditions: with gcp60_human ACBD3, Q9H3P7

| Variant | effect of a mutation on the interaction |
| --- | --- |
| Q320A | with no effect |
| S165A;S167A | with no effect |
| T149E;S150E | decreasing interaction strength |
| Q163A;R164A;S165A;Q166A | with no effect |
| S165E;S167E | with no effect |
| L81A;L82A | with no effect |
| Q107A;R108A;Q109A | with no effect |
| S132A | decreasing interaction strength |
| S165A | with no effect |
| S165E | with no effect |
| E87A;S88A;L89A | with no effect |
| S167E | with no effect |

Variants of: B2
Conditions: with gcp60_human ACBD3, Q9H3P7
Remark: another data set of the same source

| Variant | effect of a mutation on the interaction |
| --- | --- |
| E96A;T97A | with no effect |
| N99A;R100A | with no effect |
| V101A;L102A | disrupting interaction strength |
| V93A;V94A;M95A;E96A | decreasing interaction strength |
| E92A;V93A | with no effect |
| R103A;N104A;H105A | with no effect |
| N90A;S91A;E92A | with no effect |

Variants of: B3
Conditions: with gcp60_human ACBD3, Q9H3P7

| Variant | effect of a mutation on the interaction |
| --- | --- |
| S140E;S141E | with no effect |
| K91A;V92A | with no effect |
| L94A;T96A | with no effect |
| L88A;N89A;S90A | decreasing interaction strength |
| V100A;L101A | disrupting interaction strength |
| E102A;N103A;H104A | with no effect |
| S114E | with no effect |
| S116E;T117E;T118E;S119E | with no effect |
| S168E | with no effect |
| S58E | with no effect |
| Q99A | with no effect |
| T143E | with no effect |
